{
  "source": "paper PMC12097070",
  "about": "(Advanced Science, 2025)",
  "binders": {"B1": {"name": "Nb NBD1 (VHH)", "VHH": "AVQLVESGGGSVQAGGSLTLSCAASINTGNPALVGWYRQAPGKQREMVAMISISGNTNYAPSVKGRFTISRDNANKTIFLQMNSLTPEDTAVYYCKKLPFGSWGQGTQVTVSS", "notes": "source: E. coli BL21 (DE3), purified (Ni‐NTA, AKTA Pure System)"}},
  "conditions_in_all_cases": "both partners purified",
  "key": {"[1]": {"biological_target": "BSA protein (Bos taurus (Bovine)., UniProt P02769)", "sequence (P02769 25-607)": "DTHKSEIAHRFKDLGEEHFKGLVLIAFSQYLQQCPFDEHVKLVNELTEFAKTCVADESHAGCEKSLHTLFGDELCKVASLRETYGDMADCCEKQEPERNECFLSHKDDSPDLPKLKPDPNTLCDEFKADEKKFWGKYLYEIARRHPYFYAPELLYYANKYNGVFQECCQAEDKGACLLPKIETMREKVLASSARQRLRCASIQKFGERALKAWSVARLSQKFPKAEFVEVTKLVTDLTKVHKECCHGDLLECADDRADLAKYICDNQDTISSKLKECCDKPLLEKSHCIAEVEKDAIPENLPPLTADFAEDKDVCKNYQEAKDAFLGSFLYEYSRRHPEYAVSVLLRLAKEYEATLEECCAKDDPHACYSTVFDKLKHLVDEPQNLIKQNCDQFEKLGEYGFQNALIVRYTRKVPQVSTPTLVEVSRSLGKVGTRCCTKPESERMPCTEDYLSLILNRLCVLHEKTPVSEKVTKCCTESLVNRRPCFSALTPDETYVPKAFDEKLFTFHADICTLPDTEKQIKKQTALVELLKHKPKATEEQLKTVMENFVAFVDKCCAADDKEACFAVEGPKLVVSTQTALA", "assay": "ELISA; Nbs tested on BSA protein (Figure S7); details not shown"}, "[2]": {"biological_target": "T1, human glucose‐regulated protein 78 (hGRP78), full-length (Homo sapiens (Human)., UniProt P11021)", "T1 construct": "also called BiP; HSPA5", "T1 sequence (P11021 19-654)": "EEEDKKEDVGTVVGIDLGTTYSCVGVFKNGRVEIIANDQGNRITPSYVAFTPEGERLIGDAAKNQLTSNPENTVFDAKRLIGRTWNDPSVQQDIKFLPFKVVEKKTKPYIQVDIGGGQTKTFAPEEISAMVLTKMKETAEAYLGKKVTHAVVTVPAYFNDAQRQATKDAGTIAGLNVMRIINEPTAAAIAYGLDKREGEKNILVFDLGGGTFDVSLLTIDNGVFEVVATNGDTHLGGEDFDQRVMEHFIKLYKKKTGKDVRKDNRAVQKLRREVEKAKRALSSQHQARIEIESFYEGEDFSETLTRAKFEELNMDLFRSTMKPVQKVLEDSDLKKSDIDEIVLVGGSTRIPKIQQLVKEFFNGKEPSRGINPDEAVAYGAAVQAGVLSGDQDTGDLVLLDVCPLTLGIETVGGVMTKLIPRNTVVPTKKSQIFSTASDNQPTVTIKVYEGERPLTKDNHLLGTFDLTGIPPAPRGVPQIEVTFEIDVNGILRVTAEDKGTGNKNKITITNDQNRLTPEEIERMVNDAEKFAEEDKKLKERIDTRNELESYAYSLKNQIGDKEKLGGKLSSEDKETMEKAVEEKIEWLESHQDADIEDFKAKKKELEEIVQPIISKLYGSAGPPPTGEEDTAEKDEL", "assay": "SPR; Biacore T100; […] (10 µg mL^-1) […]; association 120 s, dissociation 300 s; […]"}, "[3]": {"biological_target": "T2, mouse GRP78 (mGRP78) (Mus musculus (Mouse)., UniProt P20029)", "T2 construct": "also called murine GRP78", "T2 sequence (P20029 20-655)": "as the sequence (P11021 19-654) above, with Y295F, A620G, A631S counted along it", "assay": "ELISA; hGRP78 or mGRP78 (10 µg mL^-1) immobilised on plates overnight at 4 °C; blocked with 3% BSA/PBS; serially diluted HA‐tagged Nbs 1 h at RT; HRP anti‐HA; OD450"}},
  "data": [
    {"binder": "B1", "values": [
      {"measurement": "binding result", "setting": "[1]", "result": "no binding"},
      {"measurement": "Kd", "setting": "[2]", "result": 3.4, "unit": "nM"},
      {"measurement": "binding result", "setting": "[3]", "result": "binds"}
    ]}
  ]
}
